According to PMC12748766, “Structural basis for human chondroitin sulfate chain polymerization” (Nature Communications, 2025):

How the values were obtained:
Assay in all cases: mass photometry; Refeyn OneMP; purified complexes diluted in 20 mM MES pH 6.5, 150 mM NaCl to around 25 nM
Details in all cases: both partners purified
[1] = biological target: T1, Chondroitin Sulfate Synthase-1 (CHSY1), secreted N-terminally truncated construct aa68-aa802 (human, UniProt Q86X52 68-802)
T1 construct: CHSY1, human, UniProt Q86X52, residues 68-802 (membrane-spanning helix removed); Construct in pHR-CMV-TetO2 with an N-terminal chicken RPTP sigma signal peptide, SUMO, 6x His and a 3C site; no cleavage site before the C-terminal Avi tag; source: Freestyle 293-F cells, co-transfected, secreted; purified from the supernatant (HisTrap, 3C protease, second HisTrap); not shown: SUMO, N-terminal, …
T1 sequence (looked up): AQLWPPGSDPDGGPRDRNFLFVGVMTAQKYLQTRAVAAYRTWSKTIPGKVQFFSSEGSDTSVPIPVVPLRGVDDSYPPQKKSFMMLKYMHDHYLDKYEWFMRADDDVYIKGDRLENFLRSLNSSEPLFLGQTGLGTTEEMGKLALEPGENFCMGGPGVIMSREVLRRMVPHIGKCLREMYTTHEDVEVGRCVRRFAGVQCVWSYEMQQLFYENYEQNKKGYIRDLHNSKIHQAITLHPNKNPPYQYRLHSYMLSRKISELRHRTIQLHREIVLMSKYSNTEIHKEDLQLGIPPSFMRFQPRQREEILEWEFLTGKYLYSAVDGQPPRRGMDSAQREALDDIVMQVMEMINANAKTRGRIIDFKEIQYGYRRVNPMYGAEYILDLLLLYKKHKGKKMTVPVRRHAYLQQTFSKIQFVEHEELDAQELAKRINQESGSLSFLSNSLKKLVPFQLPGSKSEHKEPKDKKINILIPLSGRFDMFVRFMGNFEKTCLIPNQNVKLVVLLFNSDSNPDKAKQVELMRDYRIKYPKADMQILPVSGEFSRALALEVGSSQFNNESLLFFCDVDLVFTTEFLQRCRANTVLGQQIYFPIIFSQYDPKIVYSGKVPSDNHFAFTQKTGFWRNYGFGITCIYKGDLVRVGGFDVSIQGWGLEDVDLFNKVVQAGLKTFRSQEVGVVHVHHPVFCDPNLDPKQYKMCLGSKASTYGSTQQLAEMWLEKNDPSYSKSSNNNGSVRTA

[2] = biological target: T2, CHSY3^H394A, secreted construct aa157-aa882 (human, UniProt Q70JA7 157-882, H394A)
T2 construct: CHSY3, human, UniProt Q70JA7, residues 157-882, mutation in the N-terminal GT domain; source: Freestyle 293-F cells, co-transfected with CHPF, secreted; purified by the same protocol as the wild-type complexes; not shown: SUMO, N-terminal, cleaved; His6, N-terminal, cleaved
T2 sequence (looked up): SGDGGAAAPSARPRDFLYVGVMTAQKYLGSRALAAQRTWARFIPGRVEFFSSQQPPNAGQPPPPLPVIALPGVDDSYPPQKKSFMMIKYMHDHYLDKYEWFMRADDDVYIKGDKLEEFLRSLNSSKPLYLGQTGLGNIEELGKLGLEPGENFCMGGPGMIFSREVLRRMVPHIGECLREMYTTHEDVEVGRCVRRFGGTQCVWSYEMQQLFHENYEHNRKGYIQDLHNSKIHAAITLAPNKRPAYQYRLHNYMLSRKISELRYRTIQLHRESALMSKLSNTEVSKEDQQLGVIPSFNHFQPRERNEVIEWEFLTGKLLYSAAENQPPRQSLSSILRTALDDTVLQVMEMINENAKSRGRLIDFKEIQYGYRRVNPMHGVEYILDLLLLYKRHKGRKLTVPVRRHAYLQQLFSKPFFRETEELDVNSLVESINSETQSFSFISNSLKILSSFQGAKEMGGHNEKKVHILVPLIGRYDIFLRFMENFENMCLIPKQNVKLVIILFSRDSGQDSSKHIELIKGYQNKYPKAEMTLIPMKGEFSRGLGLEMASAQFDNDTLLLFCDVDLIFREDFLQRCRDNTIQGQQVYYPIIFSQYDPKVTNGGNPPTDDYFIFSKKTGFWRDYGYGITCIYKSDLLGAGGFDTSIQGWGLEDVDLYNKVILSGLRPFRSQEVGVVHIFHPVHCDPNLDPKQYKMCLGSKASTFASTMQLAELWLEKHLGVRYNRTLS

[3] = biological target: T3, CHSY3^H831A, secreted construct aa157-aa882 (human, UniProt Q70JA7 157-882, H831A)
T3 construct: CHSY3, human, UniProt Q70JA7, residues 157-882, mutation in the C-terminal GT domain; source: Freestyle 293-F cells, co-transfected with CHPF, secreted; purified by the same protocol as the wild-type complexes; not shown: SUMO, N-terminal, cleaved; His6, N-terminal, cleaved
T3 sequence (looked up): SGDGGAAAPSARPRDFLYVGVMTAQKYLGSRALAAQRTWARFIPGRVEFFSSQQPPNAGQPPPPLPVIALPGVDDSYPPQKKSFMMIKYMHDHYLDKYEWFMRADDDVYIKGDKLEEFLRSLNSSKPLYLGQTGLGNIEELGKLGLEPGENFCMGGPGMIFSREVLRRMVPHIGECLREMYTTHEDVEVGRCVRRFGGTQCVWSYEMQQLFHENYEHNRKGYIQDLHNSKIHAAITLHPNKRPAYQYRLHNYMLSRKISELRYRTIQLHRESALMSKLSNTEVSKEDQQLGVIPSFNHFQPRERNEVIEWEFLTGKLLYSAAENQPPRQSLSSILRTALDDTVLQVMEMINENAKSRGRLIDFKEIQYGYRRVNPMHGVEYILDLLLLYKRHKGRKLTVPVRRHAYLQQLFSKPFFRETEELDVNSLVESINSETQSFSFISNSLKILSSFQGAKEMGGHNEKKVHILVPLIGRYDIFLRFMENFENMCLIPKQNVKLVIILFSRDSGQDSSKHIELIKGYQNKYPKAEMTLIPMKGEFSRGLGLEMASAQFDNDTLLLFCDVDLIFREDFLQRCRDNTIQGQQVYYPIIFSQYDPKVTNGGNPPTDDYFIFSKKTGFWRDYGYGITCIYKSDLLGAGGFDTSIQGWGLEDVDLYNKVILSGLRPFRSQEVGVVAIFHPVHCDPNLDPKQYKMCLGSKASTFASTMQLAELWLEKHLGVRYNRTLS

binding result [1]: binds | binding result [2]: binds | binding result [3]: binds
B1: Chondroitin Polymerizing Factor (CHPF), secreted N-terminally truncated construct aa81-aa775 (domain or fragment, human, UniProt Q8IZ52 81-775, looked up)
chain: GENWEPRVLPYHPAQPGQAAKKAVRTRYISTELGIRQRLLVAVLTSQTTLPTLGVAVNRTLGHRLERVVFLTGARGRRAPPGMAVVTLGEERPIGHLHLALRHLLEQHGDDFDWFFLVPDTTYTEAHGLARLTGHLSLASAAHLYLGRPQDFIGGEPTPGRYCHGGFGVLLSRMLLQQLRPHLEGCRNDIVSARPDEWLGRCILDATGVGCTGDHEGVHYSHLELSPGEPVQEGDPHFRSALTAHPVRDPVHMYQLHKAFARAELERTYQEIQELQWEIQNTSHLAVDGDQAAAWPVGIPAPSRPASRFEVLRWDYFTEQHAFSCADGSPRCPLRGADRADVADVLGTALEELNRRYHPALRLQKQQLVNGYRRFDPARGMEYTLDLQLEALTPQGGRRPLTRRVQLLRPLSRVEILPVPYVTEASRLTVLLPLAAAERDLAPGFLEAFATAALEPGDAAAALTLLLLYEPRQAQRVAHADVFAPVKAHVAELERRFPGARVPWLSVQTAAPSPLRLMDLLSKKHPLDTLFLLAGPDTVLTPDFLNRCRMHAISGWQAFFPMHFQAFHPAVAPPQGPGPPELGRDTGRFDRQAASEACFYNSDYVAARGRLAAASEQEEELLESLDVYELFLHFSSLHVLRAVEPALLQRYRAQTCSARLSEDLYHRCLQSVLEGLGSRTQLAMLLFEQEQGNST
notes: CHPF, human, UniProt Q8IZ52, residues 81-775 (membrane-spanning helix removed); Construct in pHR-CMV-TetO2 with an N-terminal chicken RPTP sigma signal peptide, SUMO, 6x His and a 3C site; a second 3C site stands before the C-terminal twin streptavidin tag; also called Chondroitin sulfate synthase 2; source: Freestyle 293-F cells, co-transfected, secreted; purified from the supernatant (HisTrap, …)
